B1: ZMYND11 (parent)
chain: YCSIKCQQEHWHAEHKRTCRRKR

Variants of: B1
Test: protein stability index of a GFP-peptide fusion (GPS, HEK-293T) (PSI 1-6); higher = more stable
Settings: c terminus: native
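Note: lentivirally expressed fusions sorted by FACS into six bins by GFP to DsRed ratio, PSI derived from sequencing read proportions per bin multiplied by bin number.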

Variant	protein stability index
YCSIKCQQEHTHAEHKRTCRRKR [W11T]	4.7
YCSIKCQQEHVHAEHKRTCRRKR [W11V]	3.48
YCSIKCQQEHYHAEHKRTCRRKR [W11Y]	3.32
YCSIKCQQEHWAAEHKRTCRRKR [H12A]	2.35
YCSIKCQQEHWCAEHKRTCRRKR [H12C]	2.09
YCSIKCQQEHWDAEHKRTCRRKR [H12D]	2.82
YCSIKCQQEHWEAEHKRTCRRKR [H12E]	2.67
YCSIKCQQEHWGAEHKRTCRRKR [H12G]	2.73
YCSIKCQQEHWIAEHKRTCRRKR [H12I]	1.59
YCSIKCQQEHWKAEHKRTCRRKR [H12K]	2.42
YCSIKCQQEHWLAEHKRTCRRKR [H12L]	2.53
YCSIKCQQEHWMAEHKRTCRRKR [H12M]	1.31
YCSIKCQQEHWNAEHKRTCRRKR [H12N]	2.9
YCSIKCQQEHWPAEHKRTCRRKR [H12P]	2.64
YCSIKCQQEHWQAEHKRTCRRKR [H12Q]	2.36
YCSIKCQQEHWRAEHKRTCRRKR [H12R]	2.53
YCSIKCQQEHWSAEHKRTCRRKR [H12S]	2.22
YCSIKCQQEHWTAEHKRTCRRKR [H12T]	2.33
YCSIKCQQEHWVAEHKRTCRRKR [H12V]	1.54
YCSIKCQQEHWYAEHKRTCRRKR [H12Y]	3.37
YCSIKCQQEHWHCEHKRTCRRKR [A13C]	2.15
YCSIKCQQEHWHDEHKRTCRRKR [A13D]	3.16
YCSIKCQQEHWHEEHKRTCRRKR [A13E]	2.16
YCSIKCQQEHWHFEHKRTCRRKR [A13F]	1.83
YCSIKCQQEHWHGEHKRTCRRKR [A13G]	2.62

Variant	protein stability index
YCSIKCQQEHWHHEHKRTCRRKR [A13H]	3.55
YCSIKCQQEHWHIEHKRTCRRKR [A13I]	2.58
YCSIKCQQEHWHKEHKRTCRRKR [A13K]	2.65
YCSIKCQQEHWHLEHKRTCRRKR [A13L]	1.61
YCSIKCQQEHWHMEHKRTCRRKR [A13M]	2.86
YCSIKCQQEHWHNEHKRTCRRKR [A13N]	2.78
YCSIKCQQEHWHPEHKRTCRRKR [A13P]	1.9
YCSIKCQQEHWHQEHKRTCRRKR [A13Q]	2.18
YCSIKCQQEHWHREHKRTCRRKR [A13R]	2.49
YCSIKCQQEHWHTEHKRTCRRKR [A13T]	1.98
YCSIKCQQEHWHVEHKRTCRRKR [A13V]	2.89
YCSIKCQQEHWHWEHKRTCRRKR [A13W]	1.32
YCSIKCQQEHWHYEHKRTCRRKR [A13Y]	2.1
YCSIKCQQEHWHAAHKRTCRRKR [E14A]	2.94
YCSIKCQQEHWHACHKRTCRRKR [E14C]	2.54
YCSIKCQQEHWHADHKRTCRRKR [E14D]	2.26
YCSIKCQQEHWHAFHKRTCRRKR [E14F]	1.76
YCSIKCQQEHWHAGHKRTCRRKR [E14G]	3.11
YCSIKCQQEHWHAHHKRTCRRKR [E14H]	2.53
YCSIKCQQEHWHAIHKRTCRRKR [E14I]	1.95
YCSIKCQQEHWHAKHKRTCRRKR [E14K]	2.92
YCSIKCQQEHWHALHKRTCRRKR [E14L]	1.87
YCSIKCQQEHWHAMHKRTCRRKR [E14M]	1.77
YCSIKCQQEHWHANHKRTCRRKR [E14N]	2.17
YCSIKCQQEHWHAPHKRTCRRKR [E14P]	1.84

Variant	protein stability index
YCSIKCQQEHWHAQHKRTCRRKR [E14Q]	2.26
YCSIKCQQEHWHARHKRTCRRKR [E14R]	2.35
YCSIKCQQEHWHASHKRTCRRKR [E14S]	2.48
YCSIKCQQEHWHATHKRTCRRKR [E14T]	2.36
YCSIKCQQEHWHAVHKRTCRRKR [E14V]	2.13
YCSIKCQQEHWHAWHKRTCRRKR [E14W]	1.71
YCSIKCQQEHWHAYHKRTCRRKR [E14Y]	2.22
YCSIKCQQEHWHAEAKRTCRRKR [H15A]	1.9
YCSIKCQQEHWHAECKRTCRRKR [H15C]	2.38
YCSIKCQQEHWHAEEKRTCRRKR [H15E]	2.79
YCSIKCQQEHWHAEFKRTCRRKR [H15F]	1.44
YCSIKCQQEHWHAEGKRTCRRKR [H15G]	2.44
YCSIKCQQEHWHAEIKRTCRRKR [H15I]	1.95
YCSIKCQQEHWHAEKKRTCRRKR [H15K]	2.01
YCSIKCQQEHWHAELKRTCRRKR [H15L]	3.01
YCSIKCQQEHWHAEMKRTCRRKR [H15M]	1.6
YCSIKCQQEHWHAENKRTCRRKR [H15N]	2.4
YCSIKCQQEHWHAEPKRTCRRKR [H15P]	2.71
YCSIKCQQEHWHAEQKRTCRRKR [H15Q]	2.06
YCSIKCQQEHWHAERKRTCRRKR [H15R]	2.18
YCSIKCQQEHWHAESKRTCRRKR [H15S]	2.44
YCSIKCQQEHWHAETKRTCRRKR [H15T]	2.41
YCSIKCQQEHWHAEVKRTCRRKR [H15V]	1.24
YCSIKCQQEHWHAEWKRTCRRKR [H15W]	1.69
YCSIKCQQEHWHAEYKRTCRRKR [H15Y]	2.01

Variant	protein stability index
YCSIKCQQEHWHAEHARTCRRKR [K16A]	2.53
YCSIKCQQEHWHAEHCRTCRRKR [K16C]	2.74
YCSIKCQQEHWHAEHDRTCRRKR [K16D]	2.43
YCSIKCQQEHWHAEHERTCRRKR [K16E]	2.46
YCSIKCQQEHWHAEHFRTCRRKR [K16F]	1.95
YCSIKCQQEHWHAEHGRTCRRKR [K16G]	2.83
YCSIKCQQEHWHAEHHRTCRRKR [K16H]	2.84
YCSIKCQQEHWHAEHIRTCRRKR [K16I]	2.18
YCSIKCQQEHWHAEHLRTCRRKR [K16L]	2.42
YCSIKCQQEHWHAEHMRTCRRKR [K16M]	2.16
YCSIKCQQEHWHAEHNRTCRRKR [K16N]	2.11
YCSIKCQQEHWHAEHQRTCRRKR [K16Q]	2.34
YCSIKCQQEHWHAEHRRTCRRKR [K16R]	1.76
YCSIKCQQEHWHAEHSRTCRRKR [K16S]	2.56
YCSIKCQQEHWHAEHTRTCRRKR [K16T]	2.71
YCSIKCQQEHWHAEHVRTCRRKR [K16V]	2.39
YCSIKCQQEHWHAEHWRTCRRKR [K16W]	1.74
YCSIKCQQEHWHAEHYRTCRRKR [K16Y]	1.62
YCSIKCQQEHWHAEHKATCRRKR [R17A]	2.61
YCSIKCQQEHWHAEHKCTCRRKR [R17C]	3.29
YCSIKCQQEHWHAEHKDTCRRKR [R17D]	2.63
YCSIKCQQEHWHAEHKETCRRKR [R17E]	2.65

— the supplement of paper PMC10567573
